In patent US6835806B2, “Cell growth regulation system” (Phoenix Pharmaceuticals, Inc., priority 2000, dated 2004):

Test system: Human umbilical vein endothelial cells (HUVEC)
Experiment: [3H]thymidine incorporation, HUVEC growth in vitro
Assay type: cell-based
Conditions: increasing concentrations, FIG. 6C
Experimental: To determine if the '362 peptide or the '367 peptide affects the in-vitro growth of cells, the '362 peptide was tested in culture dishes for the ability to inhibit the growth of prostrate tumor cells or of lung tumor cells. Radioactive hydrogen (^3 H) was attached to thymidine([^3H]hymidine), which is one of the components of DNA. Cells that grow in the presence of [^3H]thymidine incorporate the radioactive thymidine into their DNA.
Human umbilical vein endothelial cells (HUVEC) were also grown in increasing concentrations of the '362 peptide or '367 peptide in the presence of radioactive thymidine. HUVEC cells are commonly used to test for angiogenic regulation because these cells respond to angiogenic inhibitors in a fashion similar to the cells in the human body that form new blood vessels. […] Research protocols designed to elucidate the reasons for this unexpected difference in response of HUVEC to endostatin protein and to '362 peptide are set out in the Research Plan, Phoenix Pharmaceuticals, Inc., 2438 Wyandotte Street, Mountain View, Calif. 94043, (1999) which is hereby incorporated by reference.

B1: endostatin protein: protein of about 20 kDa with a zinc-binding domain, inhibitor of endothelial cell growth (FIG. 5) (protein, UniProt P39060 1572-1754, looked up)
Endostatin: HSHRDFQPVLHLVALNSPLSGGMRGIRGADFQCFQQARAVGLAGTFRAFLSSRLQDLYSIVRRADRAAVPIVNLKDELLFPSWEALFSGSEGPLKPGARIFSFDGKDVLRHPTWPQKSVWHGSDPNGRRLTESYCETWRTEAPSATGQASSLLGGRLLGQSAASCHHAYIVLCIENSFMTASK
modifications: Endostatin
- HUVEC growth rate (radioactive thymidine): dramatic reduction in HUVEC growth
